Experimental data: patent US7166691B2, “Saposin C and receptors as targets for treatment of benign and malignant disorders” (priority 2002, dated 2007)

Experiments:
[1] = system: prosaposin; settings: LNCaP and normal prostate stromal cells; 0.1, 1, 10 nM; 24 h
[2] = system: normal prostate stromal cells; settings: NaSe 10 μM, 48 h
[3] = system: enzymes in the MAPK signaling transduction pathway (MEK1/2, p42/44, p90RSK); test: Activation of MAPK signaling transduction pathway (phospho-specific Western); format: cell-based, human; settings: PC-3, DU-145, LNCaP
Description: (§1) Cells were grown to 80% confluency by incubating in their respective serum-free basal media for 18 h. For each cell line, tissue culture plates were pre-treated with a specific MEK1/2 inhibitor (U0126, Cat.# 9903, Cell Signaling Technology, Beverly, Mass.) at 10 μM for 1.5 h. Saposin C and TX14A were added at the following concentrations: 0.1, 1.0, and 10 nM. The cells were then incubated at 37° C. for 5 min, washed, and lysed on ice in RIPA buffer supplemented with protease inhibitors and 1 mM sodium orthovandate, as described in S. Koochekpour et al., 1999. Clarified cell lysates were subjected to Western analysis using phospho-specific antibodies against three enzymes in the MAPK Pathway: MEK1/2 (Ser217/22; Cat.# 9121; Cell Signaling Technology, Beverly, Mass.); p90RSK (p90^rsk, Ser380, Cat# 9341, Cell Signaling Technology); and p42/44 MAP Kinases (p44^MAPK, p42^MAPK; Thr202/Tyr204, Cat# 9102; Cell Signaling Technology). Primary antibodies against p42/44 MAP kinase (Cell Signaling Technology) or against tubulin (Cat# 12463, Santa Cruz Biotechnology, Santa Cruz, Calif.) were used as controls. To quantify the difference between the control and the various treatments, the autoradiograms were read on a densitometer, an Alpha Imager 2000 (Alpha Innotech Corp., San Leandro, Calif.).

[4] = system: MEK1/2; test: Phospho-specific Western, MEK1/2; format: cell-based, human; settings: normal prostate epithelial cells; 0.1, 1.0, 10 nM
Description: as §1

[5] = system: urokinase-type plasminogen activator (uPA); test: Western blot of supernatant for uPA; format: cell-based, human; settings: normal prostate stromal cells, PC-3 and DU-145; 0.1, 1.0, 10 nM; 24 h
Description: (§2) To investigate the effect of saposin C on expression of both urokinase-type plasminogen activator (uPA) and the soluble uPA receptor (uPAR), normal prostate stromal cells and prostatic cancer cells (PC-3, DU-145, LNCaP) were cultured in media as described in Example 1. The cells were cultured in the preferred media up to 80% confluency, then washed twice with PBS, and incubated for 24 h at 37° C. in serum-free medium supplemented with either 0, 0.1, 1.0 or 10 nM saposin C. At the end of the incubation period, the cell-conditioned medium (Supernatant) was collected. The Supernatants were concentrated 5-fold using Centriprep-3 concentrator (Amikon, Beverley, Mass.), and stored frozen in −70° C. until use.
(§3) A Western blot analysis was performed (as in Examples 2 and 6) using commercially available anti-uPA and anti-uPAR antibodies (Cat# 389 and Cat# 399R, respectively; American Diagnostica Inc., Greenwich, Conn.).

[6] = system: soluble uPA receptor (uPAR); test: Western blot of supernatant for soluble uPAR; format: cell-based, human; settings: normal prostate stromal cells, PC-3 and DU-145; 0.1, 1.0, 10 nM; 24 h
Description: as §2, §3

[7] = system: breast cancer cells (MCF-7); test: Transwell Matrigel cell invasion assay; format: cell-based, human; settings: saposin C 0.1-10 nM
Description: (§4) To test the effect of saposin C on prostatic cell migration and invasion, cell migration and invasion assays were performed using 24-well transwell units with 8-μm polycarbonate filters (Costar, purchased from Becton Dickinson, Bedford, Mass.), as described in S. Koochekpour et al., “Met and […] expression in human glioma,” Cancer Res., vol. 57, pp. 5391–5398 (1997). For invasion assays, transwell filters were coated with 20 μg GFR-Matrigel matrix (Becton Dickenson) in 100 μl of basal medium, and left to air dry overnight. To the lower compartment of each transwell unit, was added 400 μl of basal media supplemented with 0.5% FBS and 0.1% BSA. Saposin C was then added to the lower compartment in the following concentrations: 0 (control), 0.1 nM, 1 nM, and 10 nM.
(§5) Cultured cells were freshly harvested by trypsinization and counted. Approximately 5000 cells were resuspended in 100 μl of serum-free medium With 0.1% BSA, and were placed in the upper compartment of the transwell unit. After 16 h of incubation at 37° C., cells in both the upper and lower compartments were fixed in methanol and stained with Diff-Quick (Dade, Aguada, Puerto Rico). Non-migratory cells in the upper surface of the filter were removed by wiping with a cotton swab. Cells under the filter were counted. The results of cell migration are shown in FIG. 4A; and of cell invasion in FIG. 4B. Each bar represents the mean +/−SEM of three duplicate experiments, and samples from each experiment were counted at least three times.
(§6) To test the effect of saposin C on migration and invasion of non-prostatic cancer cells, assays using human breast cancer cell line (MCF-7), colon cancer cell line (LoVo), and lung cancer cell line (H1299) were performed in 24-well transwell units with polycarbonate filters as described above in Example 5.

[8] = system: lung cancer cells (H1299); test: Transwell Matrigel cell invasion assay; format: cell-based, human; settings: saposin C 0.1-10 nM
Description: as §4, §5, §6

[9] = system: colon cancer cells (LoVo); test: Transwell Matrigel cell invasion assay; format: cell-based, human; settings: saposin C 0.1-10 nM
Description: as §4, §5, §6

[10] = system: normal primary prostate epithelial cells; test: Transwell cell migration assay; format: cell-based, human; settings: presence or absence of saposin C
Description: as §4, §5

[11] = system: DU-145; test: Transwell cell migration assay; format: cell-based, human; settings: saposin C 0.1-10 nM, 16 h
Description: as §4, §5

[12] = system: LNCaP; test: Transwell cell migration assay; format: cell-based, human; settings: saposin C 0.1-10 nM, 16 h
Description: as §4, §5

[13] = system: PC-3; test: Transwell cell migration assay; format: cell-based, human; settings: saposin C 0.1-10 nM in lower compartment, 16 h
Description: as §4, §5

[14] = system: p42/44 MAP Kinases; test: Phospho-specific Western, p42/44 MAP kinases; format: cell-based, human
Description: as §1

[15] = system: breast cancer cells (MCF-7); test: Transwell cell migration assay; format: cell-based, human; settings: saposin C 0.1-10 nM
Description: as §4, §5, §6

[16] = system: lung cancer cells (H1299); test: Transwell cell migration assay; format: cell-based, human; settings: saposin C 0.1-10 nM
Description: as §4, §5, §6

[17] = system: colon cancer cells (LoVo); test: Transwell cell migration assay; format: cell-based, human; settings: saposin C 0.1-10 nM
Description: as §4, §5, §6

[18] = system: PC-3 cells; test: Protection from NaSe-induced cell death (trypan blue exclusion); format: cell-based, human; settings: NaSe 10 μM, 48 h
[19] = system: non-prostatic cancer cells (MCF-7, LoVo, H1299); test: Transwell migration and invasion, all cells tested; format: cell-based, human
Description: as §4
Cultured cells were freshly harvested by trypsinization and counted. Approximately 5000 cells were resuspended in 100 μl of serum-free medium With 0.1% BSA, and were placed in the upper compartment of the transwell unit. After 16 h of incubation at 37° C., cells in both the upper and lower compartments were fixed in methanol and stained with Diff-Quick (Dade, Aguada, Puerto Rico). […] Cells under the filter were counted. […] Each bar represents the mean +/−SEM of three duplicate experiments, and samples from each experiment were counted at least three times. […]

[20] = system: prostate cancer cells and normal prostate cells; test: Protection from NaSe-induced cell death, cell lines overall; format: cell-based, human; settings: dose dependent; NaSe 10 μM; 48 h
[21] = system: normal prostate epithelial cells; test: Protection from NaSe-induced cell death (trypan blue exclusion); format: cell-based, human; settings: NaSe 10 μM, 48 h
[22] = system: prostate (PC-3, DU-145, LNCaP), breast (MCF-7), lung (H1299), and colon (LoVo) cancer cells; test: Cytotoxicity / cell number, all tested cancer cell lines incl. competitive inhibition; format: cell-based, human
Description: The conjugate of saporin and TX14A was made by special order by Advanced Targeting Systems with a 1:1 molar ratio between the peptide and saporin. Blank-SAP, a non-targeted saporin conjugate, was purchased as a control (ATS, Catalogue# IT-21). Exponentially growing cells were trypsinized and cultured in their complete culture media (1000/well in 96-well plates) as described in Example 1. After 1 day of incubation at 37° C., the culture media were supplemented with either TX14A, saporin, TX14A-saporin (conjugate), Saposin C, TX14A-saporin plus TX14A, or TX14A-Saporin plus Saposin C at the following concentrations: 0, 0.1, 1, 10, 100, 1000 nM. Three days after treatment, cell death was monitored with a Promega (Madison, Wis.) cell titer cytotoxicity kit. Cell counts were normalized to the media controls.

[23] = system: PSA; test: Western blot of supernatant for PSA expression in LNCaP cells; format: cell-based, human; settings: 24 h, at concentrations as low as 0.1 nM
Description: To investigate the effect of saposin C on the expression of PSA in LNCaP cells, cells were cultured in the preferred media up to 80% confluency, and then washed twice with PBS. The cells were incubated in serum-free medium supplemented with either testosterone (T), dihydrotestosterone (DHT), saposin C or TX14A at the following concentrations: 0, 0.1, 1 or 10 nM. […] The supernatants were concentrated 5-fold using Centriprep-3 concentrator (Amikon, Beverley, Mass.) and stored frozen in −70° C. until use. A Western blot analysis was performed (as in Examples 2 and 6) using commercially available anti-PSA (Santa Cruz Biotechnology, Santa Cruz, Calif.).

[24] = system: DU-145; test: Transwell Matrigel cell invasion assay; format: cell-based, human; settings: saposin C 0.1-10 nM, 16 h
Description: as §4, §5

[25] = system: LNCaP; test: Transwell Matrigel cell invasion assay; format: cell-based, human; settings: saposin C 0.1-10 nM, 16 h
Description: as §4, §5

[26] = system: PC-3; test: Transwell Matrigel cell invasion assay; format: cell-based, human; settings: saposin C 0.1-10 nM, 16 h
Description: as §4, §5

[27] = system: normal prostate epithelial cells; test: Cell proliferation (living cells, trypan blue exclusion); format: cell-based, human; settings: 0.1, 1.0, 10 nM, 2 days
Description: To test the effects of saposin C and TX14A on cell proliferation, various cells were cultured as described in Example 1, incubated in only fresh media, or in media supplemented with saposin C or with TX14A at concentrations of 0.1, 1.0, and 10 nM. After incubation for 2 days, the number of living cells was determined by trypan blue exclusion method, as described above in Example 3. The results are shown in FIG. 3, in which each point represents the mean +/−SEM of three duplicate experiments.

[28] = system: p90RSK; test: Phospho-specific Western, p90RSK; format: cell-based, human
Description: as §1

[29] = system: DU-145 cells; test: Protection from NaSe-induced cell death (trypan blue exclusion); format: cell-based, human; settings: NaSe 10 μM, 48 h
[30] = system: pro-cathepsin D and cathepsin D; test: Western blot of culture supernatant for cathepsin D expression; format: cell-based, human; settings: LNCaP and normal prostate stromal cells; 0.1, 1, 10 nM; 24 h; compared to control (0 nM)
[31] = normal prostate epithelial cells, decreased at 0.1 nM, increased at 1.0 nM, decreased at 10 nM

C[C@]12CCC(=O)C[C@@H]1CC[C@@H]1[C@@H]2CC[C@]2(C)[C@@H](O)CC[C@@H]12 [DHT, dihydrotestosterone]
expression of prosaposin [1]: stimulated the expression

O=[Se]([O-])[O-].[Na+].[Na+] [NaSe, sodium selenium]
toxic effect of NaSe [2]: resistant

C[C@]12CC[C@H]3[C@@H](CCC4=CC(=O)CC[C@@]43C)[C@@H]1CC[C@@H]2O [T, testosterone]
expression of prosaposin [1]: stimulated the expression

N#CC(=C(/N)Sc1ccccc1N)/C(C#N)=C(\N)Sc1ccccc1N [U0126, reference compound]
inhibition of saposin C / TX14A activation of MAPK pathway enzymes ([3]; U0126 10 μM pre-treatment 1.5 h, stromal): substantially inhibited

B1: saposin C: Human saposin C, about 8–13 kDa protein proteolytically generated from prosaposin; obtained from Professor K. Sandoff (protein, UniProt P07602 311-390, looked up)
Saposin-C: SDVYCEVCEFLVKEVTKLIDNNKTEKEILDAFDKMCSKLPKSLSEECQEVVDTYGSSILSILLEEVSPELVCSMLHLCSG
modifications: Saposin-C
notes: Human saposin C, about 8–13 kDa protein proteolytically generated from prosaposin; obtained from Professor K. Sandoff
expression of MEK1/2 (phospho-MEK1/2 Western) [4]: dose-dependent increase
extracellular level of uPA [5]: increased
extracellular level of uPAR [6]: increased
increase of invasion [7]: 22–36%
increase of invasion [8]: 19–195%
increase of invasion [9]: 16–37%
migration through the filter [10]: neither migrated through the filter
stimulation of migration [11]: 140%
stimulation of migration [12]: 50%
stimulation of migration [13]: more than 300%
pattern of p42/44 phosphorylation activity [14, 31]: biphasic pattern
increase in p42/44 phosphorylation as compared to the control ([14]; normal prostate stromal cells, densitometry): 15 fold
increase of migration [15]: 12–59%
increase of migration [16]: 44–460%
increase of migration [17]: 22–59%
protective effect, difference in the percent cell death with and without saposin C [18]: 55%
concentration at which the highest migration and invasion was seen [19]: 1 nM
degree of cell death in the presence of NaSe [20]: decreased the degree of cell death
protection from cell death [21]: Neither Saposin C nor TX14A protected
cell proliferation of all cancer cell lines ([22]; 0.1-1000 nM, three days, much greater effect in PC-3 and DU-145): increased
effect on TX14A-saporin cytotoxicity in competitive inhibition assays ([22]; equimolar mixture with TX14A-saporin, simultaneous treatment): inhibited in a dose dependent manner
extracellular level of PSA [23]: significantly increased
stimulation of invasion [24]: 70%
stimulation of invasion [25]: 48%
stimulation of invasion [26]: 100%
effect on growth [27]: did not show any effect
pattern of p90RSK phosphorylation activity [28, 31]: biphasic pattern
pattern of p90RSK activity ([28]; normal prostate stromal cells): biphasic pattern
protective effect, difference in the percent cell death with and without saposin C [29]: 50%
expression of pro-cathepsin D (50 kDa band) and active mature cathepsin D (36 kDa band) [30]: stimulate expression
activation of the enzymes in the MAPK signaling transduction pathway ([3]; normal prostate stromal cells, nanomolar concentrations, 5 min): activated
